The values that follow come from publication PMC4402530, “Unwinding forward and sliding back: an intermittent unwinding mode of the BLM helicase”.

A word on the Kd: it is the free concentration of one partner at which half of the binding sites on the other are occupied at equilibrium, for simple one-to-one binding.

What all share (test): fluorescence anisotropy; 1 mM MgCl2, no ATP listed; 25 mM Tris-HCl pH 7.5 (last digit split in text), 100 mM NaCl, 1 mM MgCl2, 3 mM DTT, 5 nM DNA, 25 C, 5 min equilibration; Hill fit
Common to all, as to conditions: protein: recombinant
(Fluorescence polarisation rises when a labelled molecule tumbles more slowly, as on binding a larger partner.)

In series [1] the target is BLM642-1290 T1110G (human, UniProt P54132 642-1290, T1110G).
BLM642-1290 T1110G, sequence (P54132 642-1290 T1110G): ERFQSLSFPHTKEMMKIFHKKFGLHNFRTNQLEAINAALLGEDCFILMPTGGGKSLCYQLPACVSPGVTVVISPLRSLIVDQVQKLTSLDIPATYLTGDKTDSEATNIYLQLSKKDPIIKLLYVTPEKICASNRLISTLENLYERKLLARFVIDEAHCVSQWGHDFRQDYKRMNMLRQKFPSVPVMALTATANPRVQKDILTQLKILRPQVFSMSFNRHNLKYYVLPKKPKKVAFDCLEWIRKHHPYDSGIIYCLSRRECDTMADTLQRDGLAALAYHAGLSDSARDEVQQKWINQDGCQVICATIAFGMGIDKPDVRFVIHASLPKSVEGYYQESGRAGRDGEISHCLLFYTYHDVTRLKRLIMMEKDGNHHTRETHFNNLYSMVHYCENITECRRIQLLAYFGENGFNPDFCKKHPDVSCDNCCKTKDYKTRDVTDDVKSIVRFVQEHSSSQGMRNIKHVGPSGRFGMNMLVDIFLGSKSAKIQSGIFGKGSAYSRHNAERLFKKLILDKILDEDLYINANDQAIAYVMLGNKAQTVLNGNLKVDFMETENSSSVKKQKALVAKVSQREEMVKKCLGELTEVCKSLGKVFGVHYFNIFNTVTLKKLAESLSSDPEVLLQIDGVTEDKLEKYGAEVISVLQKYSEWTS
Series [2] has as its target BLM642-1290 K1125A (human, UniProt P54132 642-1290, K1125A).
The target of series [3] is BLM642-1290 helicase core, wild type (human, UniProt P54132 642-1290).
BLM642-1290 helicase core, wild type, sequence (P54132 642-1290): as the sequence (P54132 642-1290 T1110G) above, with G469T counted along it
Series [4] deals with BLM642-1290 S1121A (human, UniProt P54132 642-1290, S1121A).
BLM642-1290 S1121A, sequence (P54132 642-1290 S1121A): as the sequence (P54132 642-1290 T1110G) above, with G469T, S480A counted along it
[5] abbreviates: label: 3' fluorescein on F18, blunt.

BLM642-1290 K1125A, sequence (P54132 642-1290 K1125A): as the sequence (P54132 642-1290 T1110G) above, with G469T, K484A counted along it

B1: F18/F18 bis dsDNA (18 bp) (dsDNA)
DNA 1: GCCTCGCTGCCGTCGCCA
DNA 2: TGGCGACGGCAGCGAGGC
As to B1, the dissociation constant Kd in series [1] (setting [5]) is 78.2 ± 7.2 nM; in series [2] (setting [5]) it was 28.6 ± 2.6 nM; in series [3] (setting [5]) it was 4.6 ± 0.5 nM; in series [4] (setting [5]), 14.9 ± 1.7 nM.

For the molecule GCCTCGCTGCCGTCGCCA (ssDNA) [F18 ssDNA (18 nt)], the dissociation constant (Kd) stood at 29.7 ± 3.6 nM in series [1] (label: 3' fluorescein), 21.3 ± 2.9 nM in series [2] (label: 3' fluorescein), 17.2 ± 1.6 nM in series [3] (label: 3' fluorescein) and 27.1 ± 3.7 nM in series [4] (label: 3' fluorescein).
